The target of the series is Moloney murine leukemia virus reverse transcriptase N-terminal fragment (MMLV RT) (Moloney murine leukemia virus, UniProt P03355 683-937). The series is described as follows: X-ray crystallography.
Sequence of Moloney murine leukemia virus reverse transcriptase N-terminal fragment (MMLV RT) (P03355 683-937): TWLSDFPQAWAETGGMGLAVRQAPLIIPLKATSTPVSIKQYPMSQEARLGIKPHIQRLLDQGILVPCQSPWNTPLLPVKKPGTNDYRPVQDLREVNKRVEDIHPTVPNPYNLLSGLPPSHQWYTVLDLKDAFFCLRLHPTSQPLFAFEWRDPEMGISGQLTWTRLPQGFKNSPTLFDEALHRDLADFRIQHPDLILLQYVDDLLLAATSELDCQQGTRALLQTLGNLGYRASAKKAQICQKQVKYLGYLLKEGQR

B1: 16-mer AATT duplex (dsDNA)
DNA 1: CTTAATTCGAATTAAG
DNA 2: CTTAATTCGAATTAAG
As to B1, the binding result is “binds”.
